Measured values reported in US20190330323A1 (UCB, published 2019).
Numbering of substitutions follows the chain as printed.

T1: mouse Gremlin (mouse, UniProt O70326 25-184)
T1 sequence (looked up): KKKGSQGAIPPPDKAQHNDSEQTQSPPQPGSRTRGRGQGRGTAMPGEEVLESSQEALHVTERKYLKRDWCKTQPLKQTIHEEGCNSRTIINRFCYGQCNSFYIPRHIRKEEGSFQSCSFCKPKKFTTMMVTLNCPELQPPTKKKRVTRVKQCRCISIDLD

T2: BMP4/7 heterodimer (human, UniProt P12644 293-408; P18075 293-431)
T2 sequence (looked up) 1: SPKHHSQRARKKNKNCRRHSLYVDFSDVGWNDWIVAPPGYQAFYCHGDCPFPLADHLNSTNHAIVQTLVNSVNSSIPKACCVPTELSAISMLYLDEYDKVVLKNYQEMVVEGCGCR
T2 sequence (looked up) 2: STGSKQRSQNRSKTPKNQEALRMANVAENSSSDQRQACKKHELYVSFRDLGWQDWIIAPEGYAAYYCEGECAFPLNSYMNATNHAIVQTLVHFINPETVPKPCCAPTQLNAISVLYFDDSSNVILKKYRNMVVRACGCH

B1: Ab7326 (as tested in the screening assays of Example 5) (antibody, V domains shown)
VH: QVQLVESGAEVKKPGATVKISCKVSGYTFTDYYMHWVQQAPGKGLEWMGLVDPEDGETIYAEKFQGRVTITADTSTDTAYMELSSLRSEDTAVYYCATDARGSGSYYPNHFDYWGQGTLVTVSS
VL: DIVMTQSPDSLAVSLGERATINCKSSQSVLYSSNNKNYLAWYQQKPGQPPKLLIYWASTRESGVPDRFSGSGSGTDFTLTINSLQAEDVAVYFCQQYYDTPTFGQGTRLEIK
B2: human Gremlin-1 (recombinant, full length) (ligand)
chain: T1 sequence (looked up) with P27Q, T33N
B3: truncated human Gremlin-1 (E. coli, refolded, N-terminal 6His-TEV tag) (ligand)
chain: MGSSHHHHHHSSGENLYFQGSAMPGEEVLESSQEALHVTERKYLKRDWCKTQPLKQTIHEEGCNSRTIINRFCYGQCNSFYIPRHIRKEEGSFQSCSFCKPKKFTTMMVTLNCPELQPPTKKKRVTRVKQCRCISIDLD

Tests used:
Test in all cases: cell-based or functional assay
[1] = target: B2
mouse Gremlin = target: T1, mouse Gremlin
BMP4/7 heterodimer [2] = target: T2, BMP4/7 heterodimer
BMP4/7 heterodimer [3] = target: T2, BMP4/7 heterodimer; remark: listed apart in the source

| IC50, restoration of BMP signalling, Hek-Id1 reporter gene assay [1] [nM] | IC50, restoration of BMP signalling, Hek-Id1 reporter gene assay (mouse Gremlin) [nM] | IC50, Geometric mean (nM), Hek-Id1 reporter gene assay, N = 2 (BMP4/7 heterodimer [2]) [nM] | IC50 (read off the curve) [B] (BMP4/7 heterodimer [3]) [nM] | Binder |
| --- | --- | --- | --- | --- |
| 1.3 | 0.2 |  |  | B1 |
|  |  | 1.6 |  | B2 |
|  |  | 1.7 | ~3 | B3 |
